From article PMC3638400 (Philosophical Transactions of the Royal Society B: …, 2013)
Numbering of substitutions follows the chain as printed. Names and notes keep the numbering of the source. Each block holds one molecule with its values, some of them ahead of it.

Legend:
[1] = molecular target: desmin (assembled into filaments, or immobilised on a sensor chip) (not stated (chicken gizzard desmin or recombinant human desmin prepared)) (UniProt P17661); experiment: co-sedimentation; high-speed; filaments assembled at 0.2 mg ml^-1 with WT CRYAB at 1 : 1 molar ratio; 20 mM HEPES, 100 mM NaCl, 1 mM MgCl2, 1 mM DTT, pH 6.3; 23, 39 or 44°C
[2] = molecular target: T1, filaments of keratins 7 and 18 (human, UniProt P08729 1-469; P05783 1-430); experiment: co-sedimentation; filaments assembled with the sHSP (desmin : sHSP 1 : 1 molar ratio) at three temperatures (22, 37, 44°C named in the text); pellet and supernatant by SDS-PAGE, Coomassie Blue; settings: both partners purified
T1 construct: keratin 7, recombinant human; keratin 18, recombinant human; In vitro assembled keratin filaments; also called keratin filaments
T1 sequence (looked up) 1: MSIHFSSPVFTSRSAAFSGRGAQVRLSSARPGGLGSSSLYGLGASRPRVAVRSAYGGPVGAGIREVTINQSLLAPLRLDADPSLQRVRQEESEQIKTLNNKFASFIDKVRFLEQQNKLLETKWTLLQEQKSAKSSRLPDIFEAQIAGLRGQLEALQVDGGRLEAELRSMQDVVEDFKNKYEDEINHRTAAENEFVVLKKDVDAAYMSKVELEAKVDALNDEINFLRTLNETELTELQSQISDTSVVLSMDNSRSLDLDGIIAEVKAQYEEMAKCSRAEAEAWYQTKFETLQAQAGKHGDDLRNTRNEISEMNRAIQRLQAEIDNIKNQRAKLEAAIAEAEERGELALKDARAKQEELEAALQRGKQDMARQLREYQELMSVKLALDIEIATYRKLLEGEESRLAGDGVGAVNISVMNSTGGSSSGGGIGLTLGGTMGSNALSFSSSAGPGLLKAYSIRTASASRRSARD
T1 sequence (looked up) 2: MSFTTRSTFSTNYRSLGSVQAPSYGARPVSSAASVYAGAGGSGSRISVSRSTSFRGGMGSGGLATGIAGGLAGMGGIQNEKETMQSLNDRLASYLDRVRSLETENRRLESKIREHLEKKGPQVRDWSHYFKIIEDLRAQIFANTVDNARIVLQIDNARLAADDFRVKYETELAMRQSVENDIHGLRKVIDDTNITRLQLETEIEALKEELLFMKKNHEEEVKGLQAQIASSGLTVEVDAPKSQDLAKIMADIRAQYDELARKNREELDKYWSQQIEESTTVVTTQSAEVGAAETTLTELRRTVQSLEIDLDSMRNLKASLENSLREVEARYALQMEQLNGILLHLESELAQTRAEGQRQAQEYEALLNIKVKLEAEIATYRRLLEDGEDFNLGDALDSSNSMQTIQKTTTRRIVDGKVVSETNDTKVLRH

[3] = molecular target: the molecule itself; experiment: SEC; Superformance column packed with Fractogel EMD BioSEC, calibrated with protein standards; 20 mM Tris-HCl pH 7.4, 100 mM NaCl, room temperature; self-association into oligomers
[4] = molecular target: T2, glial fibrillary acidic protein (GFAP) (human, UniProt P14136 1-432); experiment: SPR; Biacore 3000; desmin, GFAP and vimentin immobilised on a CM5 chip; CRYAB injected at 20 g ml^-1 (so in the source) for 7 min at 37°C, then washed 7 min; 10 mM HEPES pH 7.4, 0.15 M NaCl, 3.4 mM EDTA, 0.005% P20; double referencing; settings: both partners purified
T2 construct: glial fibrillary acidic protein, recombinant human; Assembled into filaments for co-sedimentation and viscometry; immobilised on the chip for SPR; also called WT GFAP; GFAP filaments
T2 sequence (P14136 whole entry): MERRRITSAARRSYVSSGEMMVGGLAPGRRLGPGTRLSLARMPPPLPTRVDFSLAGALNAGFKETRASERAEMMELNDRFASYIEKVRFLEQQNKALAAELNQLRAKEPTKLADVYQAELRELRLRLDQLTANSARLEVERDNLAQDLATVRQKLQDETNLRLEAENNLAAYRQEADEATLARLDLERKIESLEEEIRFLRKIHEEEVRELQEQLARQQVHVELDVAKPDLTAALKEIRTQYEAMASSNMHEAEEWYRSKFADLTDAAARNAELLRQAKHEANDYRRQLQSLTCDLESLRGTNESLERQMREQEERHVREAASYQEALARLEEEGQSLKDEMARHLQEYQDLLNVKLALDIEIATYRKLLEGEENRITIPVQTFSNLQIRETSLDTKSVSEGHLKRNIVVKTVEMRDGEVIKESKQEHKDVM

percent of the total CRYAB co-sedimented (pH 6.3, 39°C to 44°C) [1]: > 35 per cent
Molecule: wild-type αB-crystallin (CRYAB, HSPB5) (from UniProt P02511 1-175) (natural protein)

binding result [2]: binds
B1: wild-type αB-crystallin (CRYAB, HSPB5) (natural protein, human, UniProt P02511 1-175, looked up)
chain: MDIAIHHPWIRRPFFPFHSPSRLFDQFFGEHLLESDLFPTSTSLSPFYLRPPSFLRAPSWFDTGLSEMRLEKDRFSVNLDVKHFSPEELKVKVLGDVIEVHGKHEERQDEHGFISREFHRKYRIPADVDPLTITSSLSSDGVLTVNGPRKQVSGPERTIPITREEKPAVTAAPKK
notes: αB-crystallin (CRYAB, HSPB5), human; Polydisperse oligomer (apparent size about 520 kDa by SEC); also called WT CRYAB; WT αB-crystallin
binding result [3]: binds

binding result [2]: binds | binding result [4]: binds
B2: R120G αB-crystallin (R120G CRYAB) (natural protein, human, UniProt P02511 1-175, looked up)
chain: B1 chain with R120G
notes: αB-crystallin (CRYAB, HSPB5), human, with the disease-causing mutation R120G; Mutation found in a human family with desmin-related myopathy and cataract; Oligomer of apparent size 684 kDa by SEC; also called CRYAB R120G
binding result [3]: binds
